We go through 14 molecules from PMC7755903 (Nature Communications, 2020).

Residue numbers refer to the chain shown, from its start. Names may count otherwise. “And” between values parts separate entries of the source, which are not always exact repeats. Identical values can stand only once.

To fix the notation:
B1: E104.v2 Fab (Fab, V domains shown)
VH: EVQLVESGPGLVKPSETLSLTCTVSRFSLIGYAITWIRQPPGKGLEWIGGISSAATTFYSSWAKSRVTISRDTSKNQVSLKLSSVTAADTAVYYCARDPRGYGAALDRLDLWGQGTLVTVSS
VL: DIQMTQSPSSLSASVGDRVTITCQSIKSVYNNRLGWYQQKPGKAPKLLIYETSILTSGVPSRFSGSGSGTDFTLTISSLQPEDFATYYCAGGFDRSGDTTFGQGTKVEIK
notes: as the heavy chain of m6 (PDB 6VVU, Fab heavy chain) with the two framework changes V71R and F78V (Kabat numbering); as the light chain of m6 (PDB 6VVU, Fab light chain); No structure of v2 was obtained; it differs from v1 only at heavy chain framework positions 71 and 78; also called Fab E104.v2; source: E. coli, purified (Protein G, SP Sepharose, S75 SEC)
B2: E104.v2 IgG1 hinge variant G1-TH (antibody, V domains shown)
VH: B1 VH
VL: B1 VL
B3: humanized E104.v1 IgG1 (antibody, V domains shown)
VH: B1 VH with R71V, V78F
VL: B1 VL
B4: E104.v2 IgG1 hinge variant G1-KTH (antibody, V domains shown)
VH: B1 VH
VL: B1 VL
B5: E104.v2 IgG1 hinge variant G1.G5 (antibody, V domains shown)
VH: B1 VH
VL: B1 VL
B6: E104.v2 IgG1 hinge variant G1-H (antibody, V domains shown)
VH: B1 VH
VL: B1 VL
B7: E104.v2 IgG1 hinge variant G1 + GGS (antibody, V domains shown)
VH: B1 VH
VL: B1 VL
notes: humanized E104.v2 VH: as the VH of Sm2 (E104.v1, PDB 6VVU heavy chain) with V71R and F78V (Kabat numbering); human IgG1 heavy chain constant region, the CH1 domain up to the upper hinge; human IgG1 heavy chain constant region after the upper hinge (core and lower hinge, CH2, CH3); IgG1 with extended upper hinge; copies: 2 + 2
B8: E104.v2 IgG1 hinge variant G1 + (GGS)3 (antibody, V domains shown)
VH: B1 VH
VL: B1 VL
notes: as for B7
B9: E104.v2 IgG1 hinge variant G1-H (antibody, V domains shown)
VH: B1 VH
VL: B1 VL
notes: humanized E104.v2 VH: as the VH of Sm2 (E104.v1, PDB 6VVU heavy chain) with V71R and F78V (Kabat numbering); human IgG1 heavy chain constant region, the CH1 domain up to the upper hinge; human IgG1 heavy chain constant region after the upper hinge (core and lower hinge, CH2, CH3); IgG1 with shortened upper hinge; copies: 2 + 2
B10: humanized E104.v2 IgG1 (antibody, V domains shown)
VH: B1 VH
VL: B1 VL
notes: humanized E104.v2 VH: as the VH of Sm2 (E104.v1, PDB 6VVU heavy chain) with V71R and F78V (Kabat numbering); human IgG1 heavy chain constant region, the CH1 domain up to the upper hinge; upper hinge of human IgG1, wild type; human IgG1 heavy chain constant region after the upper hinge (core and lower hinge, CH2, CH3); v1 and v2 differ only in the heavy chain; IgG1; also called IgG1.v2; copies: 2 …
B11: E104.v2 IgG1 hinge variant G1-TH (antibody, V domains shown)
VH: B1 VH
VL: B1 VL
notes: as for B9
B12: E104.v2 IgG1 hinge variant G1-KTH (antibody, V domains shown)
VH: B1 VH
VL: B1 VL
notes: as for B9
B13: E104.v2 IgG1 hinge variant G1.G5 (antibody, V domains shown)
VH: B1 VH
VL: B1 VL
notes: humanized E104.v2 VH: as the VH of Sm2 (E104.v1, PDB 6VVU heavy chain) with V71R and F78V (Kabat numbering); human IgG1 heavy chain constant region, the CH1 domain up to the upper hinge; engineered upper hinge: DKTHT of the human IgG1 upper hinge replaced by five glycines; human IgG1 heavy chain constant region after the upper hinge (core and lower hinge, CH2, CH3); IgG1 with a flexible upper …
B14: wild-type (WT) tetrameric human βI-tryptase (enzyme)
chain: not shown
notes: mature human βI-tryptase, Ile31-Pro275 of Uniprot Q15661 (Ile16-Pro246 in chymotrypsinogen numbering); N-terminus IVGG after enterokinase cleavage; Homotetramer; residues in the results are in chymotrypsinogen numbering; also called βI-tryptase tetramer; tetrameric β-tryptase; source: Trichoplusia ni cells (baculovirus), secreted, purified (Ni-NTA, S200 SEC); zymogen cleaved with enterokinase in …

T1 sequence (chain, as listed by the source I99C I99C): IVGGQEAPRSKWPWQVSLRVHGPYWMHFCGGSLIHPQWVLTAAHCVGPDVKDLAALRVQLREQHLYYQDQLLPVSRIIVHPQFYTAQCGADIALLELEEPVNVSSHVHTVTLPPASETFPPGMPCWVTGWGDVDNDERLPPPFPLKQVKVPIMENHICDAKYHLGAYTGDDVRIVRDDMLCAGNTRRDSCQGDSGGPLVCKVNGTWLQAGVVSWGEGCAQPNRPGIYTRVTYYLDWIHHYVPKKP

One data set has as its target T1, βI-tryptase tetramer mutant I99C (human, engineered disulfide bond in the large interface (C99)).
T1 construct: mature human βI-tryptase, Ile31-Pro275 of Uniprot Q15661 (Ile16-Pro246 in chymotrypsinogen numbering); numbers count on: chymotrypsinogen numbering; Loaded as a tetramer; with E104.v2 Fab it runs as a complex of the disulfide-linked dimer; also called disulfide-locked large interface mutant; not shown: His6, N-terminal, cleaved
Put plainly: SEC; without heparin; tetrameric βI-tryptase (WT, Y75C or I99C) or zymogen monomer mixed with a twofold molar excess of Fab, 15 min at 25 °C; S200GL column in 10 mM MOPS pH 6.8, 2 M NaCl; fractions checked by SDS-PAGE. The settings on record: both partners purified. On the technique in general: SEC sorts molecules by how far they enter the pores of the column.
Take B1: the “stoichiometry N” value was 2 Fab per disulfide-linked dimer.

The target of a further data set is T2, human βI-tryptase monomer (Homo sapiens, UniProt Q15661).
T2 construct: mature wild-type human βI-tryptase, Uniprot Q15661, Ile31-Pro275 (Ile16-Pro246 chymotrypsinogen numbering); also called monomeric βI-tryptase; β1-tryptase; source: Trichoplusia ni cells (baculovirus), secreted, purified (Ni-NTA, S200 SEC)
The data set can be described thus: SPR; Biacore T200; anti-tryptase IgG variant captured on a CM5 chip with anti-human IgG (Fc) antibody; threefold dilutions of human βI-tryptase monomer injected at 30 µL/min, 25 °C, 3-min association, 10-min dissociation; 1:1 binding model; representative single sensorgram sets. As to conditions: both partners purified. Background: SPR reads the build-up and loss of mass on a sensor chip optically.
T2 sequence (Q15661 31-275): as the sequence (chain, as listed by the source I99C I99C) above, with C88I counted along it
On to B2, for which the Kd came to 0.56 nM.

As to B3, binding was put at a Kd of 0.543 nM.

Regarding B4, binding was put at a Kd of 0.522 nM.

For B5, binding was put at a Kd of 0.643 nM.

With B6, the Kd is 0.68 nM.

The target in the next data set is T3, human βI-tryptase monomer (Homo sapiens, UniProt Q15661).
T3 construct: mature wild-type human βI-tryptase, Uniprot Q15661, Ile31-Pro275 (Ile16-Pro246 in chymotrypsinogen numbering); The SPR methods say only 'human βI-tryptase monomer'; The methods describe the monomeric form as the zymogen, which still carries the N-terminal His6 tag and enterokinase site before Ile16; also called monomeric βI-tryptase; β-tryptase; source: Trichoplusia ni cells (baculovirus, …)
Put plainly: SPR; Biacore T200; antibody captured on a CM5 chip by immobilised mouse anti-human IgG (Fc); threefold dilutions of βI-tryptase monomer injected at 30 µL/min, 25 °C, 3-min association, 10-min dissociation; 1:1 Langmuir fit; n = 2. The settings on record: both partners purified.
T3 sequence (Q15661 31-275): as the sequence (chain, as listed by the source I99C I99C) above, with C88I counted along it
On to B7, for which the Kd is 0.435 nM and 0.502 nM.

B8: the Kd was 0.626 nM and 0.41 nM.

For the molecule B9, the Kd is 0.68 nM and 0.494 nM.

Molecule B10 came in with a Kd of 0.6 nM.

In the case of B11, the Kd was 0.56 nM and 0.471 nM.

Consider B12, for which the Kd is 0.522 nM and 0.401 nM.

B13: the Kd is 0.643 nM and 0.493 nM.

The next data set concerns the molecule itself. Put plainly: crystal structure; E104.v1 Fab with tetrameric βI-tryptase; crystals at 19 °C, 0.1 M Tris pH 8.5, 0.2 M CaCl2, 20% PEG 4000, 4% pentaerythritol ethoxylate; 3.0 Å.
Conditions: not given
On to B14, for which the “stoichiometry N” value was 4.

Usually stoichiometry N stands for a count of units in the complex or per binding partner. Broadly, the Kd is the equilibrium constant for the complex coming apart.
